The values below come from the supplement of paper PMC9170038.

The data set has as its system MS2 coat protein. Put plainly: apparent KD of MS2 coat protein; designed switch direction (-1 OFF switch, 1 ON switch): -1; higher = weaker reporter binding. In short, it runs like this: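 Stalled E. coli RNA polymerase transcribed designed RNA switches on Illumina chips, which were then titrated with SNAP-549-labelled MS2 coat protein, doubling from 0.7 or 1.5 nM to 3 µM. Steps lasted from 0.8–1.5 h at the lowest concentration to 10–20 min at the highest. The apparent KD is each design's median over clusters of curve-fitted normalised fluorescence.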

Setting [1] is: input ligand: microRNA oligo, concentration not stated.
[2] abbreviates: Eterna round: R95, input ligand: FMN 200 uM.
Where [3] appears, read: Eterna round: R95, input ligand: microRNA oligo, concentration not stated.
Where [4] appears, read: Eterna round: R95, input ligand: none.

With “AAACGGCAUAGAGGAUAUGCUUACCUGGGUCGUCUUCAAACAUGAGGAUCACCCAUGUAGUCGACGCAGAAGGUUAUCAAAGCC [ExNG2 2nd] (Eterna round: R96, puzzle: Exclusion NG 2)”, the “apparent KD of MS2 coat protein” value (input ligand: FMN 200 uM) came out at 0.016 µM, the “apparent KD of MS2 coat protein” value under setting [1] was 0.0122 µM and the “apparent KD of MS2 coat protein” value (input ligand: none) was determined as 0.0179 µM.
Take “AAACGUGCGAAGGAUAUCCAUCCACCCUGGAAAGGAGAAGGUCGCACAUGAGGAUCACCCAUGUGUGCCUAAAA [Zalave] (puzzle: Exclusion 6)”: the “apparent KD of MS2 coat protein” value by setting is: under setting [2], 0.0266 µM; under setting [3], 0.0114 µM; under setting [4], 0.0118 µM.
Turning to “AAAGAACAUGAGGAUCACCCAUGUGAGGAUAUCGAGAAAAGAAAGAAGAAGAAGAAAACGAGAAGGCACAAGAA [The design that might work] (puzzle: Exclusion 1)”, the “apparent KD of MS2 coat protein” value reads like this: under setting [2], 0.0437 µM; under setting [3], 0.065 µM; under setting [4], 0.0569 µM.
In the case of “AAAGAACAUGAGGAUCACCCAUGUGAGGAUAUGUAAGGAUUGUGGAGAAGAAGAGAGAACAGAAGGCACGGAGG [JR_Exclu1_Sub068] (puzzle: Exclusion 1)”, the “apparent KD of MS2 coat protein” value was found to be 0.0368 µM under setting [2], 0.0321 µM under setting [3] and 0.0449 µM under setting [4].
Regarding “AAAGAAGAGAGAAAAUAACACAUGAGGAUCACCCAUGUGAGAAGUUGAGGGUGAUACAGGCUUUAUGCUCGUCUUAU (puzzle: Sensor v3, turn-off variant 1)”, the “apparent KD of MS2 coat protein” value runs as follows: under setting [2], 0.173 µM; under setting [3], 0.204 µM.
Turning to “AAAGACAGAGGAUAUGCACGCCGACCCGGGCGGGAAGUCGGACAUGAGGAUCACCCAUGUAGAAGGCUGAGAAA [Exclss2-VII] (puzzle: Exclusion 2)”, the “apparent KD of MS2 coat protein” value under setting [3] amounted to 0.0105 µM.
“AAAGAGCGAGGAUAUGCGUGCCGGUGCGGCCAGCCGAUGUGACAUGAGGAUCACCCAUGUAGAAGGCGCAGAAA [Excls2-VIII] (puzzle: Exclusion 2)”: under setting [3], the “apparent KD of MS2 coat protein” value was determined as 0.0128 µM.
Turning to “AAAGGCUCAGGAUAUGCCCAGGAAGACAUGAGGAUCACCCAUGUACUACGGGUGUCAUACGCAGAAGGGAGAUAGA [EX5 C.28] (Eterna round: R97, puzzle: Exclusion 5)”, the “apparent KD of MS2 coat protein” value is, setting by setting: (input ligand: FMN 200 uM) 0.0251 µM; (input ligand: none) 0.0287 µM.
As to “AAAUAAAAACAAGCAAAACACAUGAGGAUCACCCAUGUAAAGGGUGAAGUUCGCACCCAAAAAUAAAAUAAAUAAAA [another turnoff var 1st] (Eterna round: R96, puzzle: Sensor v2, turn-off variant)”, the “apparent KD of MS2 coat protein” value is 0.0267 µM (input ligand: FMN 200 uM), 0.0298 µM under setting [1] and 0.0249 µM (input ligand: none).
Taken in the same sequence, the figures for “AAAUAAAACAAGCAAUAAAACAUGAGGAUCACCCAUGUAAAGGGUGAAGUUCGCACCCAAAAAUAAAAUAAAUAAAA [Denovo Take 6, 5] (Eterna round: R96, puzzle: Sensor v2, turn-off variant)” were 0.0221 µM, 0.0396 µM and 0.025 µM.
In the case of “AAAUAACAAGCGAGAUCCUACAUGAGGAUCACCCAUGUGCUCGUCUUAACAAGUACUAUCACGAAAGUGAUAGUACA [Mat - Sensor v3 - turn-off var 1 - Eli Mod - D69] (puzzle: Sensor v3, turn-off variant 1)”, the “apparent KD of MS2 coat protein” value came to 0.0175 µM under setting [2], 0.0594 µM under setting [3] and 0.0121 µM under setting [4].
In the case of “AAAUACAAGUAAAGAUCUUACAUGAGGAUCACCCAUGUGCUCGUCUUAUAAAGUACUAUCACGAAAGUGAUAGUACA [Sensor 3, v1 - 25] (puzzle: Sensor v3, turn-off variant 1)”, the “apparent KD of MS2 coat protein” value is, setting by setting: under setting [2], 0.0159 µM; under setting [3], 0.159 µM; under setting [4], 0.0184 µM.
Turning to “AAAUAGGGAGGAUAUCCAAUAUAUGACAUGAGGAUCACCCAUGUUUCCACUCGUACCUCCGGAGAAGGCCCAUAAU [Ex5 #2] (Eterna round: R97, puzzle: Exclusion 5)”, the “apparent KD of MS2 coat protein” value (input ligand: FMN 200 uM) was 0.0258 µM and the “apparent KD of MS2 coat protein” value (input ligand: none) came out at 0.0239 µM.
As for “AAAUUGGUAGAGGAUAUUGUACAGGAAACGGUGCGAGAAGGUUGCACAUGAGGAUCACCCAUGUUUAGUUGCGA [EX6 #47] (Eterna round: R97, puzzle: Exclusion 6)”, the “apparent KD of MS2 coat protein” value (input ligand: FMN 200 uM) worked out at 0.0272 µM and the “apparent KD of MS2 coat protein” value (input ligand: none) was 0.0324 µM.
Turning to “AACAAGUCAGGAUAUGCCCUGAUAGACUUGAGGAUCACCCAAGUAAGUCUAUCUGGCUAAGCAGAAGGGACAAAAG [Usrabe] (Eterna round: R97, puzzle: Exclusion 5)”, the “apparent KD of MS2 coat protein” value came to 0.643 µM (input ligand: FMN 200 uM) and 0.649 µM (input ligand: none).
